Key:
[1] = biological target: the molecule itself; assay: SEC; purified rh proSP-C BRICHOS variants on Superdex 200 GL
[2] = biological target: the molecule itself; assay: SEC; rh Bri2 BRICHOS D148N monomer fraction at 0.5, 1, 5, 10, 15 and 100 µmol L^-1; monomer to dimer
[3] = biological target: the molecule itself; assay: SEC; Bri2 BRICHOS species after thrombin removal of His6-NT* from the fusion protein's monomer, dimer and oligomer fractions; 20 mmol L^-1 NaPi, 0.2 mmol L^-1 EDTA
[4] = biological target: the molecule itself; assay: other fluorescence titration; Trp fluorescence of 2 µmol L^-1 rh Bri2 BRICHOS T206W monomers, 20 mmol L^-1 NaPi, 0.2 mmol L^-1 EDTA, pH 6.3-8.0; excitation 280 nm; monomer to dimer

B1: recombinant human (rh) wildtype proSP-C BRICHOS (domain or fragment, UniProt P11686 86-197, looked up)
chain: EHLVTTATFSIGSTGLVVYDYQQLLIAYKPAPGTCCYIMKIAPESIPSLEALTRKVHNFQMECSLQAKPAVPTSKLGQAEGRDAGSAPSGGDPAFLGMAVSTLCGEVPLYYI
notes: human prosurfactant protein C (proSP-C), BRICHOS domain, residues 86-197; By SEC mainly a trimer, with some dimers and monomers; also called rh proSP-C BRICHOS; wt proSP-C BRICHOS; source: E. coli Origami 2 (DE3) pLysS, purified (Ni-NTA, ion exchange QFF; thrombin cleavage); not shown: thioredoxin, N-terminal, cleaved
stoichiometry N [1]: 3

B2: rh proSP-C BRICHOS D105N (domain or fragment, human, UniProt P11686 86-197, looked up)
chain: EHLVTTATFSIGSTGLVVYNYQQLLIAYKPAPGTCCYIMKIAPESIPSLEALTRKVHNFQMECSLQAKPAVPTSKLGQAEGRDAGSAPSGGDPAFLGMAVSTLCGEVPLYYI
notes: human prosurfactant protein C (proSP-C), BRICHOS domain, residues 86-197, with D105N; By SEC a trimer, with more dimers and less monomers than the wildtype; also called D105N mutant; source: E. coli Origami 2 (DE3) pLysS, purified (Ni-NTA, ion exchange QFF; thrombin cleavage); not shown: thioredoxin, N-terminal, cleaved
stoichiometry N [1]: 3

B3: rh Bri2 BRICHOS D148N (domain or fragment, human, UniProt Q9Y287 113-231, looked up)
chain: QTIEENIKIFEEEEVEFISVPVPEFADSDPANIVHNFNKKLTAYLDLNLDKCYVIPLNTSIVMPPRNLLELLINIKAGTYLPQSYLIHEHMVITDRIENIDHLGFFIYRLCHDKETYKL
notes: human integral membrane protein 2B (Bri2), BRICHOS domain, residues 113-231, with D148N; Isolated by SEC as monomer, dimer and oligomer fractions; the assay's format tells which fraction was used; also called D148N mutant; source: E. coli SHuffle T7, purified (Ni-NTA, thrombin cleavage, second Ni-NTA, SEC); not shown: His6, N-terminal, cleaved; NT* solubility tag, N-terminal, cleaved
ratio of dimers to monomers at 0.5 µmol L^-1 [2]: ~1 dimers:monomers
stoichiometry N [3]: 2

B4: rh Bri2 BRICHOS T206W (domain or fragment, human, UniProt Q9Y287 113-231, looked up)
chain: QTIEENIKIFEEEEVEFISVPVPEFADSDPANIVHDFNKKLTAYLDLNLDKCYVIPLNTSIVMPPRNLLELLINIKAGTYLPQSYLIHEHMVIWDRIENIDHLGFFIYRLCHDKETYKL
notes: human integral membrane protein 2B (Bri2), BRICHOS domain, residues 113-231, with T206W; Monomer and dimer fractions were used for Trp fluorescence; also called rh Bri2 BRICHOS Trp mutant; source: E. coli SHuffle T7, purified (Ni-NTA, thrombin cleavage, second Ni-NTA, SEC); not shown: His6, N-terminal, cleaved; NT* solubility tag, N-terminal, cleaved
binding result [4]: binds

— paper doi:10.1101/2021.12.01.470723 (bioRxiv, 2021)
